Publication PMC10397247
Values belong to the binder of their own block, whether it stands above or below them.

Key:
4H697-AA = biological target: T1, 4H697-AA; test: two-hybrid library CCmax; details: mean of both orientations;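 further: natural log of median RNA to DNA barcode read ratio; higher means stronger binding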
T1 chain: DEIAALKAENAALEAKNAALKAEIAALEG

4H3697-AA = biological target: T2, 4H3697-AA; test: two-hybrid library CCmax;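 further: natural log of median RNA to DNA barcode read ratio; higher means stronger binding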
T2 chain: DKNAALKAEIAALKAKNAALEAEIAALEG

4H2907-AA = biological target: T3, 4H2907-AA; test: two-hybrid library CCmax; details: mean of both orientations;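 further: natural log of median RNA to DNA barcode read ratio; higher means stronger binding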
T3 chain: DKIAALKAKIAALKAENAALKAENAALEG

4H3133-AA = biological target: T4, 4H3133-AA; test: two-hybrid library CCmax; details: mean of both orientations;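 further: natural log of median RNA to DNA barcode read ratio; higher means stronger binding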
T4 chain: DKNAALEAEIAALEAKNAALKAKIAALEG

4H3413-AA = biological target: T5, 4H3413-AA; test: two-hybrid library CCmax; details: mean of both orientations
T5 chain: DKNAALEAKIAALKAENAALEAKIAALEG

4H3718-AA = biological target: T6, 4H3718-AA; test: two-hybrid library CCmax; details: mean of both orientations
T6 chain: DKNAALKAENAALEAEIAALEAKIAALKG

4H3162-AA = biological target: T7, 4H3162-AA; test: two-hybrid library CCmax; details: mean of both orientations
T7 chain: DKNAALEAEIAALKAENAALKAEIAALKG

4H32-AA = biological target: T8, 4H32-AA; test: two-hybrid library CCmax; details: mean of both orientations
T8 chain: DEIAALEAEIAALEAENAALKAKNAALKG

4H3606-AA = biological target: T9, 4H3606-AA; test: two-hybrid library CCmax; details: mean of both orientations
T9 chain: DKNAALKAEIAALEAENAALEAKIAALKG

4H3378-AA = biological target: T10, 4H3378-AA; test: two-hybrid library CCmax; details: mean of both orientations
T10 chain: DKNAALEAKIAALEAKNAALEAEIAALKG

4H2620-AA = biological target: T11, 4H2620-AA; test: two-hybrid library CCmax
T11 chain: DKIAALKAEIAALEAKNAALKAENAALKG

4H3631-AA = biological target: T12, 4H3631-AA; test: two-hybrid library CCmax; details: mean of both orientations
T12 chain: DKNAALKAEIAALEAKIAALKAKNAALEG

4H384-AA = biological target: T13, 4H384-AA; test: two-hybrid library CCmax; details: mean of both orientations
T13 chain: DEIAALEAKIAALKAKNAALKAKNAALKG

4H2648-AA = biological target: T14, 4H2648-AA; test: two-hybrid library CCmax; details: mean of both orientations
T14 chain: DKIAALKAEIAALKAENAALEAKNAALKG

4H982-AA = biological target: T15, 4H982-AA; test: two-hybrid library CCmax; details: mean of both orientations
T15 chain: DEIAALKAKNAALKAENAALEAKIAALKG

4H340-AA = biological target: T16, 4H340-AA; test: two-hybrid library CCmax; details: mean of both orientations
T16 chain: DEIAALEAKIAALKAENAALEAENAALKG

4H3056-AA = biological target: T17, 4H3056-AA; test: two-hybrid library CCmax; details: mean of both orientations
T17 chain: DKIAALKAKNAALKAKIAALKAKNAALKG

4H3588-AA = biological target: T18, 4H3588-AA; test: two-hybrid library CCmax; details: mean of both orientations
T18 chain: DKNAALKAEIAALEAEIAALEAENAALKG

4H3865-AA = biological target: T19, 4H3865-AA; test: two-hybrid library CCmax; details: mean of both orientations
T19 chain: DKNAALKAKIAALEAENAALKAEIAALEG

4H510-AA = biological target: T20, 4H510-AA; test: two-hybrid library CCmax; details: mean of both orientations
T20 chain: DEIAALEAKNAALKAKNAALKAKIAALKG

4H_BCR = biological target: T21, 4H_BCR; test: two-hybrid library CCmax; details: mean of both orientations
T21 chain: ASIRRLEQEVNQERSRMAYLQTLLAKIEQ

4H43-AA = biological target: T22, 4H43-AA; test: two-hybrid library CCmax; details: mean of both orientations
T22 chain: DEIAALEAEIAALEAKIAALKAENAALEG

O14-AA = biological target: T23, O14-AA; test: two-hybrid library CCmax; details: mean of both orientations
T23 chain: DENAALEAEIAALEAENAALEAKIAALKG

4H_GCN4 = test: two-hybrid library CCmax
4H_GCN4, sequence (chain, as listed by the source): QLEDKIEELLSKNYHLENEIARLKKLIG

4H3905-AA = biological target: T24, 4H3905-AA; test: two-hybrid library CCmax
T24 chain: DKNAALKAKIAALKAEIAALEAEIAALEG

4H451-AA = biological target: T25, 4H451-AA; test: two-hybrid library CCmax; details: mean of both orientations
T25 chain: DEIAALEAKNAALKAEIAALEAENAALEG

O11-AA = biological target: T26, O11-AA; test: two-hybrid library CCmax; details: mean of both orientations
T26 chain: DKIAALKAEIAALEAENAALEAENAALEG

GCN2_T = test: two-hybrid library CCmax
4H_APH = biological target: T27, 4H_APH; test: two-hybrid library CCmax; details: mean of both orientations
T27 chain: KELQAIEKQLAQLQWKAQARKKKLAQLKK

O13-AA = biological target: T28, O13-AA; test: two-hybrid library CCmax; details: mean of both orientations
T28 chain: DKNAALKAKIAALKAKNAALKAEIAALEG

4H4038-AA = biological target: T29, 4H4038-AA; test: two-hybrid library CCmax; details: mean of both orientations
T29 chain: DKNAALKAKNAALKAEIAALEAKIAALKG

O9-bA = biological target: T30, O9-bA; test: two-hybrid library CCNG1; details: mean of both orientations
T30 chain: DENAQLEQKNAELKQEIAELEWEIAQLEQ

4H369-AA = biological target: T31, 4H369-AA; test: two-hybrid library CCmax; details: mean of both orientations
T31 chain: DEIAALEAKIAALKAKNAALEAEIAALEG

4H3605-AA = biological target: T32, 4H3605-AA; test: two-hybrid library CCmax
T32 chain: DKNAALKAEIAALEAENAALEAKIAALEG

4H481-AA = biological target: T33, 4H481-AA; test: two-hybrid library CCmax; details: mean of both orientations
T33 chain: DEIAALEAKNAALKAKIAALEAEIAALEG

4H3922-AA = biological target: T34, 4H3922-AA; test: two-hybrid library CCmax; details: mean of both orientations
T34 chain: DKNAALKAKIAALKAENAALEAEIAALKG

4H3625-AA = biological target: T35, 4H3625-AA; test: two-hybrid library CCmax; details: mean of both orientations
T35 chain: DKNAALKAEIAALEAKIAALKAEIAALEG

4H662-AA = biological target: T36, 4H662-AA; test: two-hybrid library CCmax; details: mean of both orientations
T36 chain: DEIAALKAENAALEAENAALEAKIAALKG

4H55-AA = biological target: T37, 4H55-AA; test: two-hybrid library CCmax
T37 chain: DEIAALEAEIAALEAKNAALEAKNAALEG

4H3664-AA = biological target: T38, 4H3664-AA; test: two-hybrid library CCmax; details: mean of both orientations
T38 chain: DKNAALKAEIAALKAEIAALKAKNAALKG

4H4033-AA = biological target: T39, 4H4033-AA; test: two-hybrid library CCmax; details: mean of both orientations
T39 chain: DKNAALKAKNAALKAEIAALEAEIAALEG

interaction score (4H697-AA): -1.54
interaction score (4H3697-AA): -1.64
interaction score (4H2907-AA): 1.23
interaction score (4H3133-AA): -1.58
interaction score (4H3413-AA): -0.901
interaction score (4H3718-AA): -0.835
interaction score (4H3162-AA): -1.82
interaction score (4H32-AA): 1.05
interaction score (4H3606-AA): -0.861
interaction score (4H3378-AA): -1.66
interaction score (4H2620-AA): 0.586
interaction score (4H3631-AA): -0.556
interaction score (4H384-AA): 0.949
interaction score (4H2648-AA): 1.77
interaction score (4H982-AA): -0.887
interaction score (4H340-AA): 2.42
interaction score (4H3056-AA): -1.79
interaction score (4H3588-AA): 0.147
interaction score (4H3865-AA): -1.61
Binder: DKIAALKAEIAALEAKNAALKAENAALKG [4H2620-AA]

interaction score (4H510-AA): -1.37
interaction score (4H_BCR): -1.61
interaction score (4H43-AA): 0.782
interaction score (O14-AA): 0.881
interaction score (4H_GCN4): -1.53
interaction score (4H3905-AA): 1.48
interaction score (4H451-AA): -1.34
interaction score (O11-AA): -1.04
interaction score (GCN2_T): -1.53
interaction score (4H_APH): -1.84
interaction score (O13-AA): 0.128
interaction score (4H4038-AA): -0.568
Binder: DKNAALKAKIAALKAEIAALEAEIAALEG [4H3905-AA]

interaction score (O9-bA): -0.959
Binder: DENAQLEQKNAELKQEIAELEWEIAQLEQ [O9-bA]

interaction score (4H369-AA): 1.77
interaction score (4H3605-AA): -1.34
interaction score (4H481-AA): 0.557
interaction score (4H3922-AA): -0.251
interaction score (4H3625-AA): -0.874
interaction score (4H662-AA): -1.77
interaction score (4H55-AA): -1.29
interaction score (4H3664-AA): -1.67
interaction score (4H4033-AA): -1.31
Binder: DKNAALKAEIAALEAENAALEAKIAALEG [4H3605-AA]
